# Reference: the RNAGym collection of RNA variant scans (doi:10.7554/elife.90254)
# B1: LINE1-full (parent)
# chain: UACGUAGGUGGUUUUCCCCUGAUAGUGCUAAGGGGGCCUGGAAGUUUGGACUGGGCAGAGCUCAACACAGCGUGGCAAAGUGGCUGUGGCUAGACUGCCUCUCUGGAUUCCUCGUCACUCAGCAGGGCAUCUCUGAGAGAAAUGCC
# Variants of: B1
# Test: self-cleavage, relative activity (ratio to wild type); higher = more cleavage; in vitro, sequencing; the parent is a self-cleaving ribozyme
row,Variant,self-cleavage
1,UACGUAGGUGGUUUUCCCCUGAUAGUGCUAAGGGGGCCUGGAAGUUUGGACUGGGCAGAGCUCAACACAGCGUGGCAAAGUGGCUGUGGCUAGACUGCCUCUCUGGAUCCCCCGUCACUCAGCAGGGCAUCUCUGAGAGAAAUGCC,1.69
2,UACGUAGGUGGUUUUCCCCUGAUAGUGCUAAGGGGGCCUGGAGGUUUGGACUGGGCAGAGCUCAACACAGCGUGGCAAAGGGGCUGUGGCUAGACUGCCUCUCUGGAUUCCUCGUCACUCAGCAGGGCAUCUCUGAGAGAAAUGCC,1.12
3,UACGUAGGUGGUUUUCCCCUGAUAGUGCUGAGGGGGCCUGUAAGUUUGGACUGGGCAGAGCUCAACACAGCGUGGCAAAGUGGCUGUGGCUAGACUGCCUCUCUGGAUUCCUCGUCACUCAGCAGGGCAUCUCUGAGAGAAAUGCC,1.66
4,UACGUAGGUGGUUUUCCCCUGAUAGUGCUAAGGGGGCCUGGAAGUUUGGACUGGGCAGAGCUCAACACAGCGUGGCAAAGUGGCUGUGGCUAGACCGCCUCUCUGGAUUCCUCGUCACUCAGCAGGGCCUCUCUGAGAGAAAUGCC,0.15
5,UACGUAGGUGGUUUUCCCCUGAUAGUGCUAAGGGGUCCUGGAAGUUUGGACUGGGCAGAGCUCAACACAGCGAGGCAAAGUGGCUGUGGCUAGACUGCCUCUCUGGAUUCCUCGUCACUCAGCAGGGCAUCUCUGAGAGAAAUGCC,0.46
6,UACGUAGGUGGUUUUCCCCUGAUAGUGCAAAGGGGGCCUGGAAGUUUGGACUGGGCAGAGCUCAACACAGCGUGGCAAAGUGGCUGUGGCUAGACUGCCACUCUGGAUUCCUCGUCACUCAGCAGGGCAUCUCUGAGAGAAAUGCC,0.91
7,UACGUAGGGGGUUUUCCCCUGAUAGUGCUAAGGGGGCCUGGAAGUUUGGACUGGGCAGAGCUCAACACAGCGUGGCAAAGUGGCUGUGGCUAGACUGCCUCUCUGGUUUCCUCGUCACUCAGCAGGGCAUCUCUGAGAGAAAUGCC,0.46
8,UACGUAGGUGGUUUUCCCCUGAUAGUGCUAAGGGGGCCUGGAAGUUUGGACUGGGCAGAGCUCAACACAGCGUGGCAAAGCGGCUGUGGCUAGACUGCCUCUCUGGAUUCUUCGUCACUCAGCAGGGCAUCUCUGAGAGAAAUGCC,1.75
9,UACGUAGGUGGUUUUCCCCUGAUAGUGCUAAGGGGGCCUGGAAGUUUGGACUGGGCAGAGCUCAACACAGCGUGGCAAAGUGGCUGUGGCUAGACUGCCUCUCUGGAUUCCUCGUCACUCACCAGGGCAUCUCUGAGAGAAAUGCC,1.5
10,UACGUAGGAGGUUUUCCCCUGAUAGUGCUAAGGGGGCCUGGAAGUUUGGUCUGGGCAGAGCUCAACACAGCGUGGCAAAGUGGCUGUGGCUAGACUGCCUCUCUGGAUUCCUCGUCACUCAGCAGGGCAUCUCUGAGAGAAAUGCC,0.45
11,UACGUAGGUGGAUUUCCCCUGAUAGUGCUAAGGGGGCCUGGAAGUUUGGACUCGGCAGAGCUCAACACAGCGUGGCAAAGUGGCUGUGGCUAGACUGCCUCUCUGGAUUCCUCGUCACUCAGCAGGGCAUCUCUGAGAGAAAUGCC,1.12
12,UACGUAGGUGGUUUUCCCCUGAUAGUGCUAAGGGGGCCUGGAAGUUUGGACUGGGCAGAGCUCAACACAGCGUGGCUAAGUGGCUGUGGCUAGACUGCCUCUCUGGAUUCCUCGCCACUCAGCAGGGCAUCUCUGAGAGAAAUGCC,1.22
13,UACGUAGGUGGUUUACCCCUGAUAGUGCUAAGGGGGCCUGGAAGUUUGGACUGGGCAGAGCUCAACACAGCGUGGCAAAGUGGCUGUGGCUAGACUGCCUCUCUGGAUUCUUCGUCACUCAGCAGGGCAUCUCUGAGAGAAAUGCC,1.37
14,UACGUAGGUGGUUUUCCCCUGAUAGUGCUAAGGGGGCCUGGAGGUUUGGACUGGGCAGAGCUCAACACAGCGUGGCAAAGUGGCUGUGGCUAGACUGCCUCUCUGGAUUCCUCGUCGCUCAGCAGGGCAUCUCUGAGAGAAAUGCC,0.71
15,UACGUAGGUGGUUUUCCCCUGAUAAUGCUAAGGGGGCCUGGAAGUUUGGACUGGGCAGAGCUCAACACAGCGUGGCAAAGUGGCUGUGGCUAGGCUGCCUCUCUGGAUUCCUCGUCACUCAGCAGGGCAUCUCUGAGAGAAAUGCC,0.21
16,UACAUAGGUGGUUUUCCCCUGAUAGUGCUAAGGGGGCCUGGAAGUUUGGACUGGGCAGAGCUCAACACAGCGUGGCAAGGUGGCUGUGGCUAGACUGCCUCUCUGGAUUCCUCGUCACUCAGCAGGGCAUCUCUGAGAGAAAUGCC,1.3
17,UACGUAGGUGGUUUUCCCCCGAUAGUGCUAAGGGGGCCUGGAAGUUUGGACUGGGCAGAGCUCAACACAGCGUGGCAAAGUGGCUGUGGCUAGACUGCCUCUCUGGAUUCCUCGUCACUCAGCAGGGCAUCUCGGAGAGAAAUGCC,0.77
18,UACGCAGGUGGUUUUCCCCUGAUAGUGCUAAGGGGGCCUGGAAGUUUGGACUGGGCAGAGCUCAACACAGCGUGGCAAAGUGGCUGUGGCUAGACUGCCUCUCUGGAUUCCUCGUCACUCAGCAGGGCACCUCUGAGAGAAAUGCC,1.4
19,UACGUAGGUGGUUUUCCCCUGAUAGUGCUAAGGGGGCCUGGAAGUUUGGACUGGGCAGAGCUCAACACAGCGUGGCAAAGUGGCUGUGGCCAGACUGCCUCUCUGGAUUCCUCGUCACUCGGCAGGGCAUCUCUGAGAGAAAUGCC,1.29
20,UAAGUAGGUGGUUUUCCCCUGAUAGUGCUAAGGGGGCCUGGAAGUUUGGACUGGGCAGAGCUCAACACAGCGUGGCAAAGUGGCUGUGGCUAGACUGCCUCUCUGGAUUCCUCGUCACUCAGCAGGGCAUCUCCGAGAGAAAUGCC,0.92

row,Variant,self-cleavage
1,UACGUAGGUGGUUUUCCCCUGAUAGUGCUAAGGGGGCCUGGAAGCUUGGACUGGGCAGAGCUCAACACAGCGUGGCAAAGUGGCUGUGGCUAGACUGCCUCUCUGGAUUCCUCGUCACUCAACAGGGCAUCUCUGAGAGAAAUGCC,0.81
2,UACGUAGGUGGUUUUCCCCUGAUAGUGCUAAGGGGGCCUGGAAGUUUGGACUGGGCAGAGCUCAACACAGCGUGGCUAAGUGGCUGUGGCUGGACUGCCUCUCUGGAUUCCUCGUCACUCAGCAGGGCAUCUCUGAGAGAAAUGCC,0.05
3,UACGUAGGUGGUUUUCCCCUGAUAGUGCUAAGGGGGCCUGGAAGUUUGGACUGGGCAGAGCUCAACACAGCGUGGCAAAGUGGCUGUGGCUAGACUGCCUCUCUGGAUUCCUCGACACUCAGCAGGACAUCUCUGAGAGAAAUGCC,1.21
4,UACGUAGGUGGUUUUCCCCUGAUAGUGCUAAGGGGGCCUGGAAGUUUGGACUGGGCAGAGCUCAGCACAGCGUGGCAAAGUGGCUGUGGCUAGACAGCCUCUCUGGAUUCCUCGUCACUCAGCAGGGCAUCUCUGAGAGAAAUGCC,0.07
5,UACGUAGGUGGUUUUCCCCUGAUAGUGCUAAGGGGGCCUGGAAGUUUGGACUGGGCUGAGCUCAACACAGUGUGGCAAAGUGGCUGUGGCUAGACUGCCUCUCUGGAUUCCUCGUCACUCAGCAGGGCAUCUCUGAGAGAAAUGCC,0.02
6,UACGUAGGGGGUUUUCCCCUGAUAGUGCUAAGGGGGCCUGGAAGUUUGGACUGGGCAGAGCUCAACACAGCGUGGCAAAGUGGCUGUGGCUAGACUGCCUCUCUGGAUUCCUCGUCGCUCAGCAGGGCAUCUCUGAGAGAAAUGCC,1.31
7,UACGUAGGUGGUUUUCCCCUGAUAGUGCUAAGGGGGCCUGGAAGUUUGGACUGGGCAGAGCUCAACACAGCGUGGCAAAGGGGCUGUGGCUAGACUGCCUCUCUGGAUUCCUCGUCACUCAGCAGGGCAUCUCGGAGAGAAAUGCC,1.73
8,UACGUAGGUGGUUUUCCCCUGAUAGUGCUAAGGGGGCCUGGAAGUUUGGACUGGGCAGAGCUCGACACAGCGUGGCAAAGUGGCUGUGGCUAGACUCCCUCUCUGGAUUCCUCGUCACUCAGCAGGGCAUCUCUGAGAGAAAUGCC,0.11
9,UACGUAGGUGGUAUUCCCCUGAUAGUGCUAAGGGGGCCUGGAAGUUUGGACUGGGCAGGGCUCAACACAGCGUGGCAAAGUGGCUGUGGCUAGACUGCCUCUCUGGAUUCCUCGUCACUCAGCAGGGCAUCUCUGAGAGAAAUGCC,0.07
10,UACGUAGGUGGUUUUCCCCUGAUAGUGCUAAGGGGGCCUGGAAGUUUGGACUGGGCAGAGCUCAGCACAGCGUGGCAAAGUGGCUGUGGCUAGACUGCCUCUCUGGAUUCCUCGUCACUCAGCAGGGCAUCUCUGAGAGAAAUGGC,0.02
11,UACGUAGGCGGUUUUCCCCUGAUAGUGCUAAGGGGGCCUGGAAGUUUGGACUGGGCAGAGCUCAACACAGCGUGGCAAAGUGGCUGUGGCUAGACUGCCUCUCUGGAUUCCUCAUCACUCAGCAGGGCAUCUCUGAGAGAAAUGCC,1.42
12,UACGUAGGUGGUUUUCCCCUGAUAGUGCUAAGGGGGCCUAGAAGUUUGGACUGGGCAGAGCUCAACACAGCGUGGCAAAGUGGCUGUGGCUAGACUGCCUCUCUGGAUUCCUCGUCACUCAGCAGGGCAACUCUGAGAGAAAUGCC,1.36
13,UACGUAGGUGGUUUUCCCCUGAUAGUGCUAAGGGGGCCUGGAAGUUUGGACUGGGCAGAGCUCAACACAGCGUGGCAAAGUGGCUGUGGCUAGACUGCCUCUAUGGAUUCCGCGUCACUCAGCAGGGCAUCUCUGAGAGAAAUGCC,0.72
14,UACGUAGGUGGUUUUCCCCUGAUAGUGCUAAGGGGGCCUGGAAGUUUGGACUGGGCAGAGCUCAACACAGCGUGGCAAAGUGGCUGUGGCUAUACUGCCUCUCUGGAUUCCUCGUCACUCAGCAGGGCAUCUCUGGGAGAAAUGCC,0.08
15,UACGUAGGUGGUUUUCCCCUGAUAGUGCUAAGGGGGCCUGGAAGUUUGGACUGGGCAGAGCUCAACACAGCGUGGCAAAGUGGCUGUGGCUAGACUGCCUCUCUGAAUUCCUCGUCACUCAGCAGGGCAUCUCUGAGAGAAUUGCC,1.29
16,UACGUAGGUGGUUUUCCCCUGAUAGUGCUAAGGGGGCCUGGAAGUUUGGACUGGGCAGAGCUCAACACAGCGUGGCAAAGUGGCUGUGGCUAGACUGCCACUCUGGAUUCCUCGUCUCUCAGCAGGGCAUCUCUGAGAGAAAUGCC,1.01
17,UACGUGGGUGGUUUUCCCCAGAUAGUGCUAAGGGGGCCUGGAAGUUUGGACUGGGCAGAGCUCAACACAGCGUGGCAAAGUGGCUGUGGCUAGACUGCCUCUCUGGAUUCCUCGUCACUCAGCAGGGCAUCUCUGAGAGAAAUGCC,1.05
18,UACGUAGGUGGUUUUCCCCCGAUAGUGCUAAGGGGGCCUGGAAGUUUGGACUGGGCAGAGCUCAACACAGCGUGGCGAAGUGGCUGUGGCUAGACUGCCUCUCUGGAUUCCUCGUCACUCAGCAGGGCAUCUCUGAGAGAAAUGCC,1.7
19,UACGUAGGUGGAUUUCCCCUGAUAGUGCUAAGGGGGCCUGGAAGUUUGGACUGGGCAGAGCUCAACACAGCAUGGCAAAGUGGCUGUGGCUAGACUGCCUCUCUGGAUUCCUCGUCACUCAGCAGGGCAUCUCUGAGAGAAAUGCC,1.41
